These results are taken from article PMC11948038 (2025).

This experiment concerns the target cytochrome c (UniProt P99999 2-105). Nature of the experiment: NMR.

Sequence of cytochrome c (P99999 2-105): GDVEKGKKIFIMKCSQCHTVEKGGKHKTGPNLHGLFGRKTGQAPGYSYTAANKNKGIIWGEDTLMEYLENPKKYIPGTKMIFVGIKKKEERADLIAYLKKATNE

B1: full-length ANP32A (natural protein)
chain: MEMGRRIHLELRNRTPSDVKELVLDNSRSNEGKLEGLTDEFEELEFLSTINVGLTSIANLPKLNKLKKLELSDNRVSGGLEVLAEKCPNLTHLNLSGNKIKDLSTIEPLKKLENLKSLDLFNCEVTNLNDYRENVFKLLPQLTYLDGYDRDDKEAPDSDAEGYVEGLDDEEEDEDEEEYDEDAQVVEDEEDEDEEEEGEEEDVSGEEEEDEEGYNDGEVDDEEDEEELGEEERGQKRKREPEDEGEDDD
Take B1: binding was characterised by a dissociation constant (Kd) of 379 µM.
